Measured values taken from the RNAGym collection of RNA variant scans (doi:10.1073/pnas.2313332121).

B1: TPR t1 (parent)
chain: GACCAAUCUGCCCUCAGAGCUCGAGAACAUCUUCGGAUGCAGAGGAGGCAGGCUUCGGUGGCGCGAUAGCGCCAACGUCCUCAACCUCCAAUGCAUCCCACCACAUGAUGAUGCCUGAAGAGCCUUGGUUUUUUG

Variants of: B1
Assay: polymerase ribozyme fitness, log enrichment relative to wild type (log ratio); higher = more active; in vitro selection for triplet polymerase activity
Summary of the method: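 A heterodimeric triplet polymerase ribozyme had each of its subunits mutagenized by PCR into a library, which was transcribed. One round of in vitro selection, done in triplicate, annealed each library with a biotinylated primer, its partner subunit and triplets, then incubated it frozen at −7 °C before gel excision of extended constructs, streptavidin-bead capture and RT-PCR. Fitness is the logarithm of genotype enrichment relative to wild-type enrichment, based on Illumina sequencing of inputs and outputs and inverse-variance-weighted replicate averages. A base-2 logarithm is used, and genotypes were kept only with ≥10 input reads and ≥1 read per output.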

Variant | polymerase ribozyme fitness (log ratio)
G69C C89G C123A G135U | -4.06
G69C C94A U112G C124G | -1.99
G69C C97U | -2.66
G69C C101G | -3.84
G69C C114U | -1.95
G69C G71U C97A A108C U109A | -5.19
G69C G77U U87A G117U | -5.49
G69C G113C | -4.05
G69C G120U | -0.245
G69C G120U C123G | -0.319
G69C G122U U130C | -1.15
G69C U78C A84C | -2.73
G69C U92A U109G | -6.72
G69C U92G G120C | -3.22
G69C U106A G120U G128U | -2.78
G69C U116C G120C | -0.894
G69U A100U | -0.417
G69U A119G | 1.7
G69U A121C | 2.82
G69U A121G | 2.47
G69U C70A | -1.51
G69U C70G U87G G117A | -1.97
G69U C70U | -0.561
G69U C72A | -2.5

Variant | polymerase ribozyme fitness (log ratio)
G69U C72U G117A | -0.708
G69U C73G A105U | -4.07
G69U C76U G93C U132C | -2.06
G69U C79G U109G | -2.86
G69U C79U | -0.838
G69U C82A C104U | 0.152
G69U C82G | -1.46
G69U C82U | -0.267
G69U C85G C99U A100C G110A | -5.56
G69U C86U U109A C115G U126A | -7.39
G69U C88A A90U | 0.178
G69U C88U | -0.366
G69U C89G | -0.225
G69U C89G U106A G120C G122C | -1.79
G69U C98U | 0.082
G69U C104G U133G | -5.17
G69U C104U | 0.349
G69U C114A | -0.78
G69U C114A A121G U130G | 0.399
G69U C114U U133A | -1.47
G69U C115A G120A | 0.825
G69U C123A | 1.34
G69U C124A | 1.92
G69U C124G | 1.3

Variant | polymerase ribozyme fitness (log ratio)
G69U G93U | -1.01
G69U G107A | -3.34
G69U G110A U125A G127A | -0.849
G69U G110C | -2.61
G69U G110U | 0.852
G69U G117A | -0.296
G69U G127A U131A | -2.75
G69U G128A | -1.19
G69U U78A A83C C102G | -3.71
G69U U78G C102U | -0.192
G69U U81A | 0.151
G69U U81G U116C | -1.49
G69U U87A C97A | -2.19
G69U U87A G127U U130A G135U | -2.93
G69U U96G | -0.302
G69U U112G C124A U133C | 2.87
G69U U116A | -1.65
G69U U126G | -0.571
G69U U129G | -1.02
G69U U130A | -0.136
G69U U133A | -0.00372
C70A A84U U87A | -2.24
C70A A105C G120C | -5.66
C70A C79A | -3.11

Variant | polymerase ribozyme fitness (log ratio)
C70A C79A A91C G120U | -7.09
C70A C80G C82G | -7.42
C70A C82A U92C | -3.72
C70A C88U | -1.26
C70A C94U A100C | -2.44
C70A C123A | -0.557
C70A C124A | -0.104
C70A C124U | -0.369
C70A C124U U133C | 0.767
C70A G71C | -4.68
C70A G113A | -2.41
C70A G113U | -2.82
C70A G117U A121C U130C | -4.1
C70A G128U | -3.9
C70A U78C C102U | -4.3
C70A U106A | -1.51
C70A U125A G128A | -3.04
C70A U126A | -2.53
C70A U130C | -2.15
C70G A84G | -5.21
C70G A100U G117A A118C | -6.05
C70G A103U G120A A121C C123U | -5.54
C70G A111C | -3.24
C70G A111G G135U | -4.58

Variant | polymerase ribozyme fitness (log ratio)
C70G A111U | -5.55
C70G C73A | -4.66
C70G C79G C98U U109G U125A | -7.56
C70G C85A | -4.06
C70G C85A C123U U130A U133C | -3.14
C70G C89U | -2.75
C70G C94A | -3.62
C70G C98U | -2.99
C70G C104U | -3.03
C70G C123G | -0.392
C70G C124G | -0.578
C70G C124U U130C | -0.523
C70G G113U | -4.42
C70G G117C | -5.07
C70G G127U | -3.25
C70G G135A | -3.36
C70G U78A | -2.44
C70G U78C C114U | -5.32
C70G U78C G120A U130G | -2.19
C70G U106A | -2.52
C70G U130G | -4.08
C70U A74U C86A | -4.13
C70U A83U | -0.296
C70U A90C U92C C102A G120C U132A | -5.71

Variant | polymerase ribozyme fitness (log ratio)
C70U A91C C101U U112A U129C | -6.24
C70U A103U G120C U131C | -5.74
C70U A111G G120C | -4.93
C70U A118U C123A U130C | -0.647
C70U A121C | 1.13
C70U C72A C85A | -2.03
C70U C72G C115U G117A | -5.53
C70U C72U A95C A111U | -5.58
C70U C73A C102U A118U | -2.08
C70U C76U U106C U133G | -1.64
C70U C80U | -0.851
C70U C80U A90C C98U | -5.92
C70U C80U U96A U106C | -4.08
C70U C85A | -2.12
C70U C85G U87A A111G G120A | -5.35
C70U C85U | -0.917
C70U C88A C115U | -3.07
C70U C88U | -0.847
C70U C94A | -1.13
C70U C94G | -0.729
C70U C97G | -5.32
C70U C97U U106A G127U | -1.69
C70U C98U | -1.16
C70U C101A | -1.9

Variant | polymerase ribozyme fitness (log ratio)
C70U C101A U106C U133A | -0.685
C70U C102A | -1.86
C70U C102U U132A | -2.52
C70U C104G | -7.05
C70U C104U U130G | -0.752
C70U C114A G128U | -4.2
C70U G77C | -1.78
C70U G113A U131A | -0.868
C70U G113U | -2.81
C70U G117C | -4.24
C70U G117U A118U U130C | -3.8
C70U G122A U126A | -3.62
C70U G128A | -2.28
C70U G128U U133G | -2.39
C70U U78A A95U U112G | -2.17
C70U U78C C80A C97U U129A | -5.63
C70U U78G U116G | -2.23
C70U U81G A84C G122A | -5.65
C70U U87C | 0.738
C70U U92G A118G | -3.55
C70U U96G | -1.09
C70U U106A | -0.205
C70U U109G | -4.21
